Results from patent US7217694B2, “Inhibitors of IAPP fibril formation and uses thereof” (The Governing Counsel of the University of Toronto, priority 2000, dated 2007).
Entries after “also recorded” stand apart in the source; their conditions may differ.

Key:
[1] = target: T1, hIAPP 1–37 (Homo sapiens, UniProt P10997); assay: Circular dichroism (CD) of IAPP conformational change, random coil to β-sheet; format: biochemical; conditions: for effect on IAPP β-sheet formation / precipitation (CD): pH 6.5; for effect on initial random structure of IAPP (CD) / conformational change of IAPP (CD): time 0; for effect on initial random structure of IAPP (CD): 1:10 or 1:20 molar ratio; for inhibition of IAPP β-sheet formation / fibril formation, overall statement (CD): molar ratio not stated; for inhibitory activity from the circular dichroism results, peptides from the 8–20 region (summary): FIGS. 9A to 16B; for description of activity on IAPP conformation (CD), peptides from the 8–20 region: concentration not given; for effect on IAPP conformation (CD): higher molar ratios / higher concentrations; for effect on IAPP conformation (CD), peptides from the 8–20 region: 10-fold molar excess
T1 construct: Synthetic human IAPP (1–37) was purchased from BACHEM; purchased BACHEM (Torrence, Calif.); host or cells: chemical synthesis
T1 sequence (P10997 34-70): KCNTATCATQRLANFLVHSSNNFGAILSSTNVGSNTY
Description: (§1) FIG. 1 illustrates the sequence of the amyloid-β (Aβ) peptide and its proposed structural domains. A peptide-based approach similar to that used for Aβ (Tjernberg, et al, J Biol Chem 272:12601–12605, 1997) has been used for targeting two key domains in IAPP initially ranging from the 8–20 and 20–29 sequences as shown in FIG. 2. These peptides, as has been shown for Aβ peptides, are able to bind to the full-length IAPP peptide and alter fibrillogenesis. The peptides disrupt fibrillogenesis by disrupting the folding into the amyloidogenic β-sheet conformation, disrupting protofilament interactions, and/or interfering with side chain interactions within the folded IAPP, which are necessary for aggregation and fibril formation. The peptides that have been examined (shown in FIG. 2) were small, synthetic hexapeptides that correspond to the principal sequence domains of IAPP. […] The in vitro assays included: Circular Dichroism (CD), to look at changes in folding of the amyloidogenic β-sheet; negative stain electron microscopy (EM) to examine changes in fibril morphology and relative density; and ThT fluorescence assay which provides a quantitative assessment of fibril formation.
Synthetic human IAPP (1–37) was purchased from BACHEM (Torrence, Calif.), synthetic peptides spanning the region from IAPP 8 to 20 and 19–31 (FIG. 3) were synthesized by the Peptide Synthesis Laboratory at the University of Toronto using standard FMOC (Fluoroenylmethoxycarbonyl) based solid phase peptide synthesis methodology. The peptides were purified by reverse phase HPLC using water/acetonitrile mixtures buffered with 0. 1% trifluoroacetic acid, on a POROS 20R2 column. The synthetic peptides were solubilized in […] (1 mg/ml), filtered (0.2 μm), aliquotted and lyophilized (Higham, C E., et al., FEBS Lett. 470: 55–60, 2000). Aliquots were reconstituted as required in 20 mM sodium acetate buffer pH 6.5.
CD was used to measure the peptide conformational changes associated with fibril formation. CD experiments were carried out at room temperature, and spectra (average of 5 scans) were collected using a Jasco J720 spectropolarimeter and quartz cuvettes with a path length of 1 mm. […]

[2] = target: T1, hIAPP 1–37; assay: Negative stain electron microscopy of IAPP fibril morphology and density; format: biochemical; conditions: for effect on IAPP fibril morphology / density / aggregation (EM): molar ratio not stated
Description: as §1
TEM was used for structural analysis of in vitro assembled fibrils. Aliquots (4 μl) were applied to pioloform and carbon coated grids. The samples were incubated on the grids for 3 minutes at room temperature, excess material blotted off and stained with 1% phosphotungstic acid (PTA). Excess PTA was blotted off and the sample was left to air dry. All samples were examined using a Hitachi 7000 electron microscope with an accelerating voltage of 75 kV.
In preliminary work the series of peptides were synthesized from the 20–29 domain and examined, via CD, EM and ThT fluorescence, at two molar ratios (1:10 and 1:20) in comparison to the full-length IAPP residues 1–37. The following data (FIGS. 5A to 5D, 6A to 6C and 7A to 7B) were obtained.

[3] = target: T2, Synthetic human IAPP (1-37) (human, not fully specified); assay: cell-based or functional assay
T2 peptide: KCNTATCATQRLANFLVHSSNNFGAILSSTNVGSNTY

ILSSTN was tested, and the “effect on IAPP β-sheet formation / precipitation (CD)” value ([1]; 48-hour incubation) was “little effect on the ability of hIAPP (1–37) to form a β-sheet” and the “effect on initial random structure of IAPP (CD)” value (from here on “effect … of IAPP (CD)”) [1] was “had no effect on the initial random structure of IAPP”.

In the case of NNFGAI, the “effect on IAPP fibril morphology / density / aggregation (EM)” value [2] is reported as “had no effect on the morphology of IAPP fibrillar aggregates”, the “effect on IAPP β-sheet formation / precipitation (CD)” value ([1]; 48-hour incubation) is reported as “little effect on the ability of hIAPP (1–37) to form a β-sheet” and the “effect on IAPP aggregation or precipitation (CD)” value ([1]; 48-hour incubation, 10 fold molar excess) is reported as “no effect on aggregation or precipitation of hIAPP”. The “IAPP conformation (CD)” value ([1]; 48-hour incubation, 20-fold molar excess) was “maintain IAPP in a random conformation”, the “inhibition of IAPP β-sheet formation / fibril formation, overall statement (CD)” value [1] was “little, if any, inhibitory properties” and the “effect … of IAPP (CD)” value [1] was “had no effect on the initial random structure of IAPP”.

With ANFLVH [FRA-019] the “effect on IAPP fibril morphology / density / aggregation (EM)” value [2] was “lower density of IAPP fibrils”, the “inhibitory activity from the circular dichroism results, peptides from the 8–20 region (summary)” value (“inhibitory activity” below) [1] was “have inhibitory activity” and the “description of activity on IAPP conformation (CD), peptides from the 8–20 region” value (“description of activity” for short) [1] was “maintained a random coil”.

In the case of GAILSST, the “effect on IAPP conformation (CD)” value [1] is reported as “prevented the conformational change to β-sheet”.

With FGAILS the “effect on IAPP fibril morphology / density / aggregation (EM)” value [2] was “had no effect on the morphology of IAPP fibrillar aggregates”, the “effect on IAPP β-sheet formation / precipitation (CD)” value ([1]; 48-hour incubation) was “little effect on the ability of hIAPP (1–37) to form a β-sheet” and the “effect … of IAPP (CD)” value [1] was “had no effect on the initial random structure of IAPP”.

SSNFGA was tested, and the “inhibition of normal IAPP fibrillar aggregation (EM)” value ([2]; reduced inhibitor concentrations) was “effective inhibitors of normal IAPP fibrillar aggregation”.

In the case of SSNNFG, the “effect on IAPP fibril morphology / density / aggregation (EM)” value [2] is reported as “typical high density of IAPP fibrils was not seen; also recorded: absence of fibrillar aggregates which could act as seeds”, the “hIAPP conformation by CD” value ([1]; 1:1 molar ratio with IAPP) is reported as “maintained hIAPP (1–37) in a random coil conformation” and the “effect on IAPP β-sheet formation / precipitation (CD)” value ([1]; 48-hour incubation) is reported as “capable of maintaining IAPP in a random conformation”. For the same molecule, the “inhibition of IAPP β-sheet formation / fibril formation, overall statement (CD)” value [1] was “strong inhibitors of β-sheet formation; also recorded: effective inhibitors even when used at low concentrations” and the “effect … of IAPP (CD)” value [1] was “had no effect on the initial random structure of IAPP”.

With QRLANF [FRA-014] the “effect on IAPP fibril morphology / density / aggregation (EM)” value [2] was “significantly accelerated aggregation”.

For NFGAIL, the “effect on IAPP fibrils (EM)” value ([2]; 20 fold molar excess) was “appeared to enhance IAPP aggregation”, the “effect on IAPP fibril morphology / density / aggregation (EM)” value [2] was “slightly enhanced fibril formation; also recorded: had no effect on the morphology of IAPP fibrillar aggregates; also recorded: immediate increase in the development of fibrils” and the “inhibition of IAPP β-sheet formation / fibril formation, overall statement (CD)” value [1] was “not inhibitory; also recorded: may actually enhance IAPP fibril formation”. For the same molecule, the “conformational change of IAPP (CD)” value ([1]; 10 fold excess) was “a conformational change at time 0” and the “conformational change of IAPP (CD)” value ([1]; 20 fold excess) was “conformational change from random coil to β-sheet”.

In the case of ATQRLA [FRA-012], the “effect on IAPP fibril morphology / density / aggregation (EM)” value [2] is reported as “only limited effects on the density and morphology of the fibrils”, the “inhibitory activity” value [1] is reported as “have inhibitory activity” and the “effect on IAPP conformation (CD)” value [1] is reported as “limited inhibition”.

AILSST was tested, and the “effect on IAPP fibril morphology / density / aggregation (EM)” value [2] was “fibrils formed were less numerous; also recorded: absence of fibrillar aggregates which could act as seeds”, the “hIAPP conformation by CD” value ([1]; 1:1 molar ratio with IAPP) was “no longer inhibitory” and the “inhibition of IAPP β-sheet transition and aggregation (CD)” value ([1]; 1:10 or 1:20 molar ratio (10- or 20-fold molar excess)) was “very strong inhibitors of IAPP β-sheet transition”. For the same molecule, the “hIAPP conformation by CD” value ([1]; 5-fold molar excess) was “able to maintain hIAPP as a random coil peptide”, the “inhibition of IAPP β-sheet conformational change at reduced concentrations (CD)” value ([1]; 5-fold molar excess (1:5) or 1:1 molar ratio) was “capable of maintaining the majority of hIAPP in a random coil conformation” and the “effect on IAPP β-sheet formation / precipitation (CD)” value ([1]; 48-hour incubation) was “able to prevent the attenuation of signal due to precipitation of IAPP”. The “effect on IAPP conformation (CD)” value [1] was “prevented the conformational change to β-sheet”, the “inhibition of IAPP β-sheet formation / fibril formation, overall statement (CD)” value [1] was “greatest inhibition of IAPP fibril formation” and the “effect … of IAPP (CD)” value [1] was “had no effect on the initial random structure of IAPP”.

FLVHSS [FRA-018] was tested, and the “inhibitory activity” value [1] was “have inhibitory activity” and the “description of activity” value [1] was “some modest inhibition”.

TQRLAN [FRA-013] was tested, and the “effect on IAPP fibril morphology / density / aggregation (EM)” value [2] was “significantly accelerated aggregation”, the “effect on IAPP conformation (CD), peptides from the 8–20 region” value [1] was “enhanced formation of the beta-sheet conformation” and the “effect on IAPP conformation (CD)” value [1] was “possibility of a random coil”.

For LANFLV [FRA-016], the “effect on IAPP fibrils (EM)” value ([2]; 10-fold excess) was “disruption of normal fibrils”, the “effect on IAPP fibrils (EM)” value ([2]; 20 fold molar excess) was “Some fibrils were also seen” and the “effect on IAPP conformation (CD), peptides from the 8–20 region” value [1] was “relatively good inhibition”. The “inhibitory activity” value [1] was “have inhibitory activity” and the “effect on IAPP conformation (CD)” value [1] was “better activity”.

In the case of RLANFL [FRA-015], the “effect on IAPP fibril morphology / density / aggregation (EM)” value [2] is reported as “enhanced lateral aggregation (ribbon structures); also recorded: significantly accelerated aggregation”.

NFLVHS [FRA-017] was tested, and the “effect on IAPP fibril morphology / density / aggregation (EM)” value [2] was “only limited effects on the density and morphology of the fibrils”, the “inhibitory activity” value [1] was “have inhibitory activity” and the “description of activity” value [1] was “limited inhibitory activity”.

For NNFGAI, the “molar excess of peptide needed to keep IAPP in random conformation (CD, 48 hours)” value [3] was 20 fold molar excess.

SNNFGA was tested, and the “sedimentation assay: soluble hIAPP remaining after 24 hours, 10 fold excess of peptide” value [3] was roughly 15%, the “sedimentation assay: soluble hIAPP remaining after 48 hours, 10 fold excess of peptide” value [3] was roughly 25% and the “sedimentation assay: soluble hIAPP remaining after 72 hours, 10 fold excess of peptide” value [3] was roughly 20%.

For GAILSS, the “sedimentation assay: soluble hIAPP remaining after 24 hours, 10 fold excess of peptide” value [3] was greater than 80%, the “sedimentation assay: soluble hIAPP remaining after 48 hours, 10 fold excess of peptide” value [3] was roughly 25% and the “sedimentation assay: soluble hIAPP remaining after 72 hours, 10 fold excess of peptide” value [3] was roughly 20%.
